The values below come from PMC8897273 (Journal of molecular biology, 2022).

The data set has as its target PABP1;eIF4G1 (88-653) (Homo sapiens;Homo sapiens, UniProt P11940;Q04637 1-636;88-653, |). Description: EMSA. Background: In EMSA bound probe runs differently from free probe, usually more slowly.

Chain of PABP1;eIF4G1 (88-653) (P11940 whole entry, chain 1 of 2): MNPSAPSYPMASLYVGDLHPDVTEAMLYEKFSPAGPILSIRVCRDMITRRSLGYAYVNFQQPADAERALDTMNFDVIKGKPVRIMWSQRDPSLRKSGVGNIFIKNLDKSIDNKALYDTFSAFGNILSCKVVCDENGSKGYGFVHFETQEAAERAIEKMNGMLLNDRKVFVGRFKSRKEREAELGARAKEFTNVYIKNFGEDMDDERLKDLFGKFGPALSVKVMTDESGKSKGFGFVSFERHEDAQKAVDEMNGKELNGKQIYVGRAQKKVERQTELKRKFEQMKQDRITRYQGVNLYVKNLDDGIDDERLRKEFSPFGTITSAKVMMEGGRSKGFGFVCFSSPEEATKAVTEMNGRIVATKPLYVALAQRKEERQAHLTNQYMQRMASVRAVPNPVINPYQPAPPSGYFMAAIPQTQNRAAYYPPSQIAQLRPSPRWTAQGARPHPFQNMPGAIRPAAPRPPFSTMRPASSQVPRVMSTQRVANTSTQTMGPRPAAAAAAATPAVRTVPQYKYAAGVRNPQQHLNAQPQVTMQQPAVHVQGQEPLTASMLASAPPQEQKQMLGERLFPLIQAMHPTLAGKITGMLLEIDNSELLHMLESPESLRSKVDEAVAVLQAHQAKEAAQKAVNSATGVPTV
Chain of PABP1;eIF4G1 (88-653) (Q04637 88-653, chain 2 of 2): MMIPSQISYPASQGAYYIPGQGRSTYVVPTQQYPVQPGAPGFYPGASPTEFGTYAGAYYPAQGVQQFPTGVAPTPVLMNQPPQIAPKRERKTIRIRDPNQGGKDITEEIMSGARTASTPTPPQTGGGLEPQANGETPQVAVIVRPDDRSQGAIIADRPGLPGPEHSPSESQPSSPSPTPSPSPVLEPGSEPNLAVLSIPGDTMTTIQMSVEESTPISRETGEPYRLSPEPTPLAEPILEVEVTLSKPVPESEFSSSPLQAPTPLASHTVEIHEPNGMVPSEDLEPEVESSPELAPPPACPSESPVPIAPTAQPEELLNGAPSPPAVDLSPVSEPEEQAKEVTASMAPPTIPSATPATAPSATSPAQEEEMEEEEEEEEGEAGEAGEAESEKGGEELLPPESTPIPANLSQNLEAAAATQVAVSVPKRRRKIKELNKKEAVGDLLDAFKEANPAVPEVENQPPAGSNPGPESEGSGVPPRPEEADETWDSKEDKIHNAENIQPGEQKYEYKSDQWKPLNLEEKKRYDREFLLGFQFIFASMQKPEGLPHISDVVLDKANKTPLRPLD

B1: Poly(A)18 (ssRNA)
RNA: AAAAAAAAAAAAAAAAAA
Regarding B1, the binding result is recorded as “binds”.
